Data taken from patent US20240327504A1 (MABLOC, published 2024).

Target: SARS-CoV-2 Spike, WT (SARS-CoV-2, UniProt P0DTC2 14-1273)
Assay: cell-based or functional assay

B1: MR22950 antibody (antibody, V domains shown)
VH: QLQLQESGPGLVKPSEPLSLTCAVSGGFIGTNWWTWIRQPPGKGLEWIGRISGSVGSTSYNPSLKSRVTISRDTSKNQFSLNLNSLTAADTAVYYCAREGRLDTLDWGQGVLVIVSS
VL: QSVLTQPPSASEAARKSVTISCSGSSSNIGSYSVSWYQQFPGTPPKLLIYFNDQRASGVSDRFSGSKSGTSASLAISGLQTEDEADYYCAGWDDSLNGVLFGGGTRLTVLG
Neut50: 6 ng/mL
